The target of test [1] is Plasmodium falciparum P2 (PfP2), recombinant histidine-tagged full length protein (Plasmodium falciparum) (UniProt O00806). The test can be described thus: multi-angle light scattering; PfP2 250 to 400 µM, freshly prepared sample, HELEOS 8 Wyatt instrument, BSA as standard.
The target is the same in test [2]. As to the kind of experiment: dynamic light scattering; PfP2 40 to 180 µM in Tris buffer, pH 7.5, 25°C, freshly prepared samples; size from a calibration of hydrodynamic diameter against molecular weight.

For the substance “Plasmodium falciparum P2 (PfP2), recombinant histidine-tagged full length protein (from UniProt O00806 1-112) (natural protein)”, the stoichiometry N in test [1] fell in the range of 7 to 8; in test [2] it was 8 to 9.

These data come from article PMC3342256.
